Article doi:10.64898/2025.12.11.693838 (bioRxiv, 2025)

Biological target: the molecule itself
Assay: crystal structure

B1: N-terminal β-flap deletion mutant of SaTpx (NΔ15-SaTpx) (domain or fragment, UniProt Q2FXL3 16-164, looked up)
chain: QQINEGDFAPDFTVLDNDLNQVTLADYAGKKKLISVVPSIDTGVCDQQTRKFNSDASKEEGIVLTISADLPFAQKRWCASAGLDNVITLSDHRDLSFGENYGVVMEELRLLARAVFVLDADNKVVYKEIVSEGTDFPDFDAALAAYKNI
stoichiometry N: 2

B2: Staphylococcal atypical 2-Cys peroxiredoxin / thiol peroxidase, wild type (WT-SaTpx) (enzyme, UniProt Q2FXL3 1-164, looked up)
chain: MTEITFKGGPIHLKGQQINEGDFAPDFTVLDNDLNQVTLADYAGKKKLISVVPSIDTGVCDQQTRKFNSDASKEEGIVLTISADLPFAQKRWCASAGLDNVITLSDHRDLSFGENYGVVMEELRLLARAVFVLDADNKVVYKEIVSEGTDFPDFDAALAAYKNI
stoichiometry N: 2
